Measured values as given in article PMC7375240, “Covalent Inhibitors Allosterically Block the Activation of Rho Family Proteins and Suppress Cancer Cell Invasion” (Advanced Science, 2020).

Legend:
[1] = molecular target: T1, RalGPS1 (residues 24-289) (human, UniProt Q5JS13 24-289); test: pull-down; (His)6-tagged GTPase held on nickel beads, 2 µg GST-tagged partner added; 20 mM HEPES pH 7.4, 150 mM NaCl, 5 mM MgCl2, 40 mM imidazole, 4 °C, 1 h; GST-tagged protein detected by anti-GST western blot; samples without effect of DC-Rhoin; settings: both partners purified
T1 construct: RalGPS1, human, residues 24-289; also called respective GEF of Ral-B (pairing inferred); source: E. coli BL21 (DE3), purified (GSTTrap, Superdex 75)
T1 sequence (Q5JS13 24-289): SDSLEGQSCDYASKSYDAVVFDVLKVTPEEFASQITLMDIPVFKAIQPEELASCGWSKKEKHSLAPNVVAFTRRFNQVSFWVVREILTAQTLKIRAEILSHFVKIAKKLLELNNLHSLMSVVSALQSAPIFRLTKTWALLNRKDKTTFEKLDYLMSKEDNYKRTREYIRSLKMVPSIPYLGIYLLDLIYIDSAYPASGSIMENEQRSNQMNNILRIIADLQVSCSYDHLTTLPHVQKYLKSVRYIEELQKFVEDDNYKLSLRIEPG

[2] = molecular target: Rac1 (human, UniProt P63000 1-192); test: as above; settings: both partners purified

B1: Ral-B (natural protein, human, UniProt P11234 1-206, looked up)
chain: MAANKSKGQSSLALHKVIMVGSGGVGKSALTLQFMYDEFVEDYEPTKADSYRKKVVLDGEEVQIDILDTAGQEDYAAIRDNYFRSGEGFLLVFSITEHESFTATAEFREQILRVKAEEDKIPLLVVGNKSDLEERRQVPVEEARSKAEEWGVQYVETSAKTRANVDKVFFDLMREIRTKKMSENKDKNGKKSSKNKKSFKERCCLL
notes: RalB, human, full length, in pET28a with a TEV site; source: E. coli BL21 (DE3), purified (HisTrap FF, Superdex 75)
binding result [1]: binds

B2: Tiam1 (residues 1033-1406) (domain or fragment)
chain: RQLSDADKLRKVICELLETERTYVKDLNCLMERYLKPLQKETFLTQDELDVLFGNLTEMVEFQVEFLKTLEDGVRLVPDLEKLEKVDQFKKVLFSLGGSFLYYADRFKLYSAFCASHTKVPKVLVKAKTDTAFKAFLDAQNPRQQHSSTLESYLIKPIQRVLKYPLLLRELFALTDAESEEHYHLDVAIKTMNKVASHINEMQKIHEEFGAVFDQLIAEQTGEKKEVADLSMGDLLLHTSVIWLNPPASLGKWKKEPELAAFVFKTAVVLVYKDGSKQKKKLVGSHRLSIYEEWDPFRFRHMIPTEALQVRALPSADAEANAVCEIVHVKSESEGRPERVFHLCCSSPESRKDFLKSVHSILRDKHRRQLLKTE
notes: Tiam1, murine, residues 1033-1406; The text says only 'their respective GEFs'; that this construct was the GEF used with Rac1 is inferred from the list of constructs; also called respective GEF of Rac1 (pairing inferred); source: E. coli BL21 (DE3), purified (GSTTrap, Superdex 75)
binding result [2]: binds
